In patent US9254322B2, “Compositions comprising E-selectin antagonists and uses therefor” (The University of Queensland, priority 2007, dated 2016):

B1: pegylated G-CSF: recombinant human pegylated G-CSF (granulocyte colony stimulating factor), Neulasta from Amgen (protein, UniProt P09919 31-207, looked up)
Granulocyte …: TPLGPASSLPQSFLLKCLEQVRKIQGDGAALQEKLVSECATYKLCHPEELVLLGHSLGIPWAPLSSCPSQALQLAGCLSQLHSGLFLYQGLLQALEGISPELGPTLDTLQLDVADFATTIWQQMEELGMAPALQPTQGAMPAFASAFQRRAGGVLVASHLQSFLEVSYRVLRHLAQP
modifications: PEG (pegfilgrastim)
notes: recombinant human pegylated G-CSF (granulocyte colony stimulating factor), Neulasta from Amgen

Experiments:
[1] = system: long-term reconstituting hematopoietic stem cells; assay: HSC cycling and number in vivo following cytotoxic insult with 5-fluorouracil in wild-type and E-selectin KO mice
Experimental: Adult mice (10-14 week-old) with homologous deletion of the E-selectin gene were administered intravenously a single dose of 5-FU at 150 mg/kg. At days 2 and 6 following 5-FU, mice were injected intraperitoneally BrdU 100 mg/kg followed by a continuous dose of 1 mg/mL in their drinking water at a concentration of 1 mg/mL. 18 hours following the injection of BrdU. Mice were sacrificed, their bone marrow cells collected as described above and stained with the following combination of antibodies: a) biotinylated antibodies against lineage-specific antigens CD3, CD5, B220/CD45R, CD11b, Gr-1/Ly-6C/G, CD41, Ter119 together with streptavidin conjugated to PercP-Cy5.5; b) fluorescein isothiocyanate (FITC) conjugated anti-CD48; c) phycoerythrin (PE) conjugated anti-CD150; d) PECy7 conjugated anti-Sca-1/Ly-6A/E; f) allophycocyanin (APC) conjugated anti-CD117 antibodies. True hematopoietic stem cells with the phenotype Lineage-negative, Sca1-positive, CD117-positive, CD41-negative, CD48-negative, CD150-positive were counted and sorted as described above. Sorted cells were cytospun on glass slides and stained with anti-BrdU antibodies as described above.

[2] = system: hematopoietic stem and progenitor cells; assay: Mobilization of HSC with recombinant human pegylated G-CSF in wild-type and E-selectin KO mice; format: in vivo, C57BL/6 mice; conditions: 3-day course, total 1 mg/kg s.c.
Experimental: Mobilization was induced in wild-type C57BL/6 mice and in C57BL/6 mice carrying homologous deletion of the E-selectin gene (E-selectin KO mice), using recombinant human G-CSF following a mobilization dosing and protocol similar to that used for human patients.
Adult mice (10- to 14-week old males) were administered recombinant human pegylated G-CSF (granulocyte colony stimulating factor) subcutaneously. Two doses were given 36 hours apart, each at 0.5 mg/kg. The G-CSF used was Neulasta, from Amgen. Neulasta was diluted to 0.1 mg/mL in sterile saline for injection and 100 μL used per injection into 20 g mice. In some experiments, a cohort of ‘control’ mice received saline injections alone.
Blood containing the mobilized HSC, was collected 3 days following the initial G-CSF injection using heparin as anticoagulant (13 units of sodium heparin/mL blood). Four different assays were performed on the blood to determine the extent of HSC mobilization. Some of these assays are surrogate measures of mobilization that are commonly used in the clinical setting; that is they measure associated changes, not HSC content directly. These are total blood leukocyte counts and numbers colony forming cells (CFC) in the blood. The third assay based on phenotypic analysis (expression of a panel of surface markers which define long-term reconstituting HSC), while directly measuring HSC, also detect some progenitor cell populations. Phenotypic enumeration is commonly used to determine HSC mobilization in human patients (a different array of cell-surface markers are used in mice). […]
A) Blood leukocyte counts were measured on a Sysmex KX21 automated haematology analyser (Roche).
B) Colony forming cell assay. […] The number of colony forming cells (CFC) per mL of blood can then been calculated. […]

[3] = system: hematopoietic stem and progenitor cells; assay: G-CSF mobilization after 8 rounds of cyclophosphamide chemotherapy in wild-type and E-selectin KO mice; format: in vivo; conditions: mice pre-treated with 8 fortnightly rounds of cyclophosphamide 200 mg/kg, 6 weeks rest, then G-CSF; FIG. 8
Experimental: Wild-type and E-selectin KO mice were first administered 8 consecutive rounds of chemotherapy. The chemotherapeutic agent used was the alkylating agent cyclophosphamide administered as a single intraperitoneal injection at 200 mg/kg. Mice were given 8 rounds of cyclophosphamide chemotherapy at fortnightly intervals, then left to recover for 6 weeks before administration of G-CSF (total 1 mg/kg as above) and blood collected 3 days later at HSC mobilization. Blood was analyzed for total leukocyte count, Colony forming cells and phenotypic HSC as described above.

| Molecule | HSC numbers per femur, E-selectin-/- versus WT mice ([1]; day 7 after single dose 150 mg/kg, FIG. 4) | BrdU incorporation in hematopoietic stem cells, E-selectin knock-out versus wild-type mice ([1]; days 3 and 7 after single dose 150 mg/kg, BrdU in last 17 hours, FIG. 3) | number of phenotypic HSC per mL of mobilized blood, E-selectin KO versus wild-type mice ([2]; FIG. 7C) | number of CFC per mL of mobilized blood, E-selectin KO versus wild-type mice ([2]; blood collected 3 days after first injection, FIG. 7B) | number of functional long-term reconstituting HSC per mL of mobilized blood, E-selectin KO versus wild-type mice ([2]; competitive long-term reconstitution assay) | CFC per mL of peripheral blood, E-selectin KO versus wild-type mice [3] | phenotypic HSC per mL of peripheral blood, E-selectin KO versus wild-type mice [3] |
| --- | --- | --- | --- | --- | --- | --- | --- |
| O=c1[nH]cc(F)c(=O)[nH]1 [5FU, 5-fluorouracil] | 5 fold | significantly lower | – | – | – | – | – |
| B1 | – | – | 2.5 fold | 2.5 fold | 12 fold | 5 fold | 2.5 fold |
